Eight molecules from patent US20110091994A1, “Methods for Screening Compounds for Treating and/or Preventing an Hepatitis C Virus Infection” (priority 2008, published 2011) can be followed below.

Like-named read-outs stand apart in the source and are kept apart here.

Assay [1] addresses T1, HCV ORFs (Gal4-DB fusions) (Hepatitis C virus genotype 1b, UniProt Q9WMX2).
T1 construct: expressed in transfected cells; host or cells: Saccharomyces cerevisiae MAV203 (IMAP1) / AH109 (IMAP2)
The class given is binding, HCV genotype 1b, isolate con1. The conditions noted are these: human protein as prey.
Protocol: (§1) HCV ORFs were transferred from pDONR223 into bait vector (pPC97) to be expressed as Gal4-DB fusions in yeast. Two different screening methods were used (IMAP1 and IMAP2). Both for IMAP1 and IMAP2 strategies and because bait constructs sometimes self-transactivate reporter genes, SD-L-H culture medium were supplemented with 3-aminotriazole (3-AT). Appropriate concentrations of this drug were determined by growing bait strains on SD-L-H medium supplemented with increasing concentrations of 3-AT. […] For IMAP1, bait vectors were introduced in MAV203 yeast strain and both human spleen and foetal brain AD-cDNA libraries (Invitrogen) were screened by transformation as described (7). All primary positive clones (selected on SD-W-L-H+3-AT) were tested by further phenotypic assay using two additional reporter genes: LacZ (X-Gal colorimetric assay) and URA3 (growth assay on 5-FOA supplemented medium). […] AD-cDNA were PCR-amplified and inserts were sequenced to identify interactors. IMAP2 screens were performed by yeast mating, using AH109 and Y187 yeast strains (Clontech (8)). Bait vectors were transformed into AH109 (bait strain) and human spleen and foetal brain AD-cDNA libraries (Invitrogen) were transformed into Y187 (prey strain). Single bait strains were mated with prey strains then diploids were plated on SD-W-L-H+3-AT medium. Positive clones were maintained onto this selective medium for 15 days to eliminate any contaminant AD-cDNA plasmid (9). AD-cDNAs were PCR amplified and inserts were sequenced.
(§2) We have developed a bioinformatic pipeline that assigns each IST to its native human genome transcript. […] Gal4 motif was searched (last 87 bases of GAL4-AD), sequences downstream of this motif were translated into peptides and aligned using BLASTP against the REFSEQ (http://www.ncbi.nlm.nih.gov/RefSeq/) human protein sequence database (release 04/2007). Low-confidence alignments (E value>10^−10, identity <80%) and premature STOP codon containing sequences were eliminated. Only in-frame proteins and high quality sequences were further considered

Assay [2] concerns HCV ORFs (Gal4-DB fusions). The class given is binding, HCV genotype 1b, isolate con1. The conditions noted are these: human protein listed by gene symbol; the value names the HCV protein it interacts with.
Protocol: as §1, §2
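Further: yeast two-hybrid screens using HCV genotype 1b proteins fused to Gal4-DB as baits against prey cDNA libraries from human spleen and foetal brain, IMAP1 via transformation and IMAP2 via mating.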

B1: DDX3X (protein, UniProt O00571 2-662, looked up)
ATP-dependent RNA helicase …: SHVAVENALGLDQQFAGLDLNSSDNQSGGSTASKGRYIPPHLRNREATKGFYDKDSSGWSSSKDKDAYSSFGSRSDSRGKSSFFSDRGSGSRGRFDDRGRSDYDGIGSRGDRSGFGKFERGGNSRWCDKSDEDDWSKPLPPSERLEQELFSGGNTGINFEKYDDIPVEATGNNCPPHIESFSDVEMGEIIMGNIELTRYTRPTPVQKHAIPIIKEKRDLMACAQTGSGKTAAFLLPILSQIYSDGPGEALRAMKENGRYGRRKQYPISLVLAPTRELAVQIYEEARKFSYRSRVRPCVVYGGADIGQQIRDLERGCHLLVATPGRLVDMMERGKIGLDFCKYLVLDEADRMLDMGFEPQIRRIVEQDTMPPKGVRHTMMFSATFPKEIQMLARDFLDEYIFLAVGRVGSTSENITQKVVWVEESDKRSFLLDLLNATGKDSLTLVFVETKKGADSLEDFLYHEGYACTSIHGDRSQRDREEALHQFRSGKSPILVATAVAARGLDISNVKHVINFDLPSDIEEYVHRIGRTGRVGNLGLATSFFNERNINITKDLLDLLVEAKQEVPSWLENMAYEHHYKGSSRGRSKSSRFSGGFGARDYRQSSGASSSSFSSSRASSSRSGGGGHGSSRGFGGGGYGGFYNSDGYGGNYNSQGVDWWGN
For the molecule B1, the “IMAP Y2H IMAP2 (number of IST)” value in assay [1] (HCV protein CORE as bait) is given as 1.

B2: DDX3Y (protein, UniProt O15523 2-660, looked up)
ATP-dependent RNA helicase …: SHVVVKNDPELDQQLANLDLNSEKQSGGASTASKGRYIPPHLRNREASKGFHDKDSSGWSCSKDKDAYSSFGSRDSRGKPGYFSERGSGSRGRFDDRGRSDYDGIGNRERPGFGRFERSGHSRWCDKSVEDDWSKPLPPSERLEQELFSGGNTGINFEKYDDIPVEATGSNCPPHIENFSDIDMGEIIMGNIELTRYTRPTPVQKHAIPIIKGKRDLMACAQTGSGKTAAFLLPILSQIYTDGPGEALKAVKENGRYGRRKQYPISLVLAPTRELAVQIYEEARKFSYRSRVRPCVVYGGADIGQQIRDLERGCHLLVATPGRLVDMMERGKIGLDFCKYLVLDEADRMLDMGFEPQIRRIVEQDTMPPKGVRHTMMFSATFPKEIQMLARDFLDEYIFLAVGRVGSTSENITQKVVWVEDLDKRSFLLDILGATGSDSLTLVFVETKKGADSLEDFLYHEGYACTSIHGDRSQRDREEALHQFRSGKSPILVATAVAARGLDISNVRHVINFDLPSDIEEYVHRIGRTGRVGNLGLATSFFNEKNMNITKDLLDLLVEAKQEVPSWLENMAYEHHYKGGSRGRSKSNRFSGGFGARDYRQSSGSSSSGFGASRGSSSRSGGGGYGNSRGFGGGGYGGFYNSDGYGGNYNSQGVDWWGN
As for B2, the “Interaction with viral protein” value in assay [2] is on record as “CORE”. The “IMAP Y2H IMAP2 (number of IST)” value in assay [1] (HCV protein CORE as bait) is reported as 3.

B3: EEF1A1 (protein, UniProt P68104 2-462, looked up)
Elongation factor 1-alpha 1: GKEKTHINIVVIGHVDSGKSTTTGHLIYKCGGIDKRTIEKFEKEAAEMGKGSFKYAWVLDKLKAERERGITIDISLWKFETSKYYVTIIDAPGHRDFIKNMITGTSQADCAVLIVAAGVGEFEAGISKNGQTREHALLAYTLGVKQLIVGVNKMDSTEPPYSQKRYEEIVKEVSTYIKKIGYNPDTVAFVPISGWNGDNMLEPSANMPWFKGWKVTRKDGNASGTTLLEALDCILPPTRPTDKPLRLPLQDVYKIGGIGTVPVGRVETGVLKPGMVVTFAPVNVTTEVKSVEMHHEALSEALPGDNVGFNVKNVSVKDVRRGNVAGDSKNDPPMEAAGFTAQVIILNHPGQISAGYAPVLDCHTAHIACKFAELKEKIDRRSGKKLEDGPKFLKSGDAAIVDMVPGKPMCVESFSDYPPLGRFAVRDMRQTVAVGVIKAVDKKAAGAGKVTKSAQKAQKAK
Turning to B3, the “Interaction with viral protein” value in assay [2] is “NS3”. For the same molecule, the “IMAP Y2H IMAP2 (number of IST)” value in assay [1] (HCV protein NS3 as bait) came out at 1.

B4: DLAT (protein, UniProt P10515 87-647, looked up)
Dihydrolipoyllysine-residue …: SLPPHQKVPLPSLSPTMQAGTIARWEKKEGDKINEGDLIAEVETDKATVGFESLEECYMAKILVAEGTRDVPIGAIICITVGKPEDIEAFKNYTLDSSAAPTPQAAPAPTPAATASPPTPSAQAPGSSYPPHMQVLLPALSPTMTMGTVQRWEKKVGEKLSEGDLLAEIETDKATIGFEVQEEGYLAKILVPEGTRDVPLGTPLCIIVEKEADISAFADYRPTEVTDLKPQVPPPTPPPVAAVPPTPQPLAPTPSAPCPATPAGPKGRVFVSPLAKKLAVEKGIDLTQVKGTGPDGRITKKDIDSFVPSKVAPAPAAVVPPTGPGMAPVPTGVFTDIPISNIRRVIAQRLMQSKQTIPHYYLSIDVNMGEVLLVRKELNKILEGRSKISVNDFIIKASALACLKVPEANSSWMDTVIRQNHVVDVSVAVSTPAGLITPIVFNAHIKGVETIANDVVSLATKAREGKLQPHEFQGGTFTISNLGMFGIKNFSAIINPPQACILAIGASEDKLVPADNEKGFDVASMMSVTLSCDHRVVDGAVGAQWLAEFRKYLEKPITMLL
Regarding B4, the “Interaction with viral protein” value in assay [2] is “NS3”. Besides, in assay [1] (HCV protein NS3 as bait), the “IMAP Y2H IMAP2 (number of IST)” value came to 8.

B5: EGFL7 (protein, UniProt Q9UHF1 24-273, looked up)
Epidermal growth factor-like …: YRPGRRVCAVRAHGDPVSESFVQRVYQPFLTTCDGHRACSTYRTIYRTAYRRSPGLAPARPRYACCPGWKRTSGLPGACGAAICQPPCRNGGSCVQPGRCRCPAGWRGDTCQSDVDECSARRGGCPQRCVNTAGSYWCQCWEGHSLSADGTLCVPKGGPPRVAPNPTGVDSAMKEEVQRLQSRVDLLEEKLQLVLAPLHSLASQALEHGLPDPGSLLVHSFQQLGRIDSLSEQISFLEEQLGSCSCKKDS
Regarding B5, the “Interaction with viral protein” value in assay [2] is recorded as “CORE”. In addition, in assay [1] (HCV protein CORE as bait), the “IMAP Y2H IMAP2 (number of IST)” value came out at 1.

B6: UBASH3A (protein, UniProt P57075 1-661, looked up)
Ubiquitin-associated and SH3 …: MAAGETQLYAKVSNKLKSRSSPSLLEPLLAMGFPVHTALKALAATGRKTAEEALAWLHDHCNDPSLDDPIPQEYALFLCPTGPLLEKLQEFWRESKRQCAKNRAHEVFPHVTLCDFFTCEDQKVECLYEALKRAGDRLLGSFPTAVPLALHSSISYLGFFVSGSPADVIREFAMTFATEASLLAGTSVSRFWIFSQVPGHGPNLRLSNLTRASFVSHYILQKYCSVKPCTKQLHLTLAHKFYPHHQRTLEQLARAIPLGHSCQWTAALYSRDMRFVHYQTLRALFQYKPQNVDELTLSPGDYIFVDPTQQDEASEGWVIGISQRTGCRGFLPENYTDRASESDTWVKHRMYTFSLATDLNSRKDGEASSRCSGEFLPQTARSLSSLQALQATVARKSVLVVRHGERVDQIFGKAWLQQCSTPDGKYYRPDLNFPCSLPRRSRGIKDFENDPPLSSCGIFQSRIAGDALLDSGIRISSVFASPALRCVQTAKLILEELKLEKKIKIRVEPGIFEWTKWEAGKTTPTLMSLEELKEANFNIDTDYRPAFPLSALMPAESYQEYMDRCTASMVQIVNTCPQDTGVILIVSHGSTLDSCTRPLLGLPPRECGDFAQLVRKIPSLGMCFCEENKEEGKWELVNPPVKTLTHGANAAFNWRNWISGN
For B6, the “IMAP Y2H IMAP2 (number of IST)” value in assay [1] (HCV protein NS5A as bait) worked out at 1.

B7: BIN1 (protein, UniProt O00499 2-593, looked up)
Myc box-dependent-interacting …: AEMGSKGVTAGKIASNVQKKLTRAQEKVLQKLGKADETKDEQFEQCVQNFNKQLTEGTRLQKDLRTYLASVKAMHEASKKLNECLQEVYEPDWPGRDEANKIAENNDLLWMDYHQKLVDQALLTMDTYLGQFPDIKSRIAKRGRKLVDYDSARHHYESLQTAKKKDEAKIAKPVSLLEKAAPQWCQGKLQAHLVAQTNLLRNQAEEELIKAQKVFEEMNVDLQEELPSLWNSRVGFYVNTFQSIAGLEENFHKEMSKLNQNLNDVLVGLEKQHGSNTFTVKAQPSDNAPAKGNKSPSPPDGSPAATPEIRVNHEPEPAGGATPGATLPKSPSQLRKGPPVPPPPKHTPSKEVKQEQILSLFEDTFVPEISVTTPSQFEAPGPFSEQASLLDLDFDPLPPVTSPVKAPTPSGQSIPWDLWEPTESPAGSLPSGEPSAAEGTFAVSWPSQTAEPGPAQPAEASEVAGGTQPAAGAQEPGETAASEAASSSLPAVVVETFPATVNGTVEGGSGAGRLDLPPGFMFKVQAQHDYTATDTDELQLKAGDVVLVIPFQNPEEQDEGWLMGVKESDWNQHKELEKCRGVFPENFTERVP
On to B7, for which, in assay [1] (HCV protein NS5A as bait), the “IMAP Y2H IMAP1 (number of IST)” value turned out to be 16 and the “IMAP Y2H IMAP2 (number of IST)” value came out at 14.

B8: NAPL1L2 (protein, UniProt Q9ULW6 1-460, looked up)
Nucleosome assembly protein …: MAESENRKELSESSQEEAGNQIMVEGLGEHLERGEDAAAGLGDDGKCGEEAAAGLGEEGENGEDTAAGSGEDGKKGGDTDEDSEADRPKGLIGYVLDTDFVESLPVKVKYRVLALKKLQTRAANLESKFLREFHDIERKFAEMYQPLLEKRRQIINAIYEPTEEECEYKSDSEDCDDEEMCHEEMYGNEEGMVHEYVDEDDGYEDYYYDYAVEEEEEEEEEDDIEATGEENKEEEDPKGIPDFWLTVLKNVDTLTPLIKKYDEPILKLLTDIKVKLSDPGEPLSFTLEFHFKPNEYFKNELLTKTYVLKSKLAYYDPHPYRGTAIEYSTGCEIDWNEGKNVTLKTIKKKQKHRIWGTIRTVTEDFPKDSFFNFFSPHGITSNGRDGNDDFLLGHNLRTYIIPRSVLFFSGDALESQQEGVVREVNDAIYDKIIYDNWMAAIEEVKACCKNLEALVEDIDR
As for B8, the “IMAP Y2H IMAP2 (number of IST)” value in assay [1] (HCV protein NS3 as bait) was determined as 1.
